# T1: GST-14-3-3ζ (Drosophila melanogaster (Fruit fly), UniProt P29310)
# T1 chain: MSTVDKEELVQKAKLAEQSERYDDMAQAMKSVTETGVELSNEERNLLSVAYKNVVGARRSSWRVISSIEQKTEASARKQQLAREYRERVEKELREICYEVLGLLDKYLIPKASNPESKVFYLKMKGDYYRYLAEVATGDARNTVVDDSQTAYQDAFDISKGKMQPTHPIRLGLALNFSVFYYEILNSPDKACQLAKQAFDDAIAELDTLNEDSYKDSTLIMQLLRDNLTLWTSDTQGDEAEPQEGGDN
# B1: MBP-Tctp (protein)
# chain: MKIYKDIITGDEMFADTYKMKLVDDVIYEVYGKLITRQGDDIKLEGANASAEEADEGTDITSESGVDVVLNHRLTECFAFGDKKSYTLYLKDYMKKVLAKLEEKSPDQVDIFKTNMNKAMKDILGRFKELQFFTGESMDCDGMVALVEYREINGDSVPVLMFFKHGLEEEKC
# Target: T1, GST-14-3-3ζ
# Test: GST pull-down
binder,measurement,value
B1,binding result,binds
